The values that follow come from patent publication US20240425606A1, “ANTI-IL-11RA ANTIBODIES” (Lassen Therapeutics 1, Inc., priority 2021, published 2024).

For assay [1], the target named is T1, human IL-11Rα (human, UniProt Q14626 23-363, limits assumed).
T1 construct: Protein coated on ELISA plates and used in solution for BLI; also called hIL-11Rα; hIL-11R
T1 sequence: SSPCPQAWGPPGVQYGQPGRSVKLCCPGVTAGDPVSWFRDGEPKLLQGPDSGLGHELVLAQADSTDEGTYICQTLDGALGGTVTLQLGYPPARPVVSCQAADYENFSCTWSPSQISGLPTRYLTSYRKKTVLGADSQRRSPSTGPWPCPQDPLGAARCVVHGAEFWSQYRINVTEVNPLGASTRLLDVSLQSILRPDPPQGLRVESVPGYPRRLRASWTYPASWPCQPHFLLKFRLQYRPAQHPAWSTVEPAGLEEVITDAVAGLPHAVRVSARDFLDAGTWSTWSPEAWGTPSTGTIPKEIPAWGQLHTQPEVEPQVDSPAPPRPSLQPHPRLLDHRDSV
Description: competitive ELISA, IL-11R coated on plate; competitor: biotinylated TS7 (0.1 µg/mL). The method, then:
Relative binding activity of the antibodies was tested by competitive ELISA using biotinylated mAbs 8E2 or TS7. Antibodies 8E2 and TS7 were biotinylated using sulfo-NHS Biotin (Thermo Fisher) per the manufacturer's instructions. IL-11R was coated onto ELISA plates (Nunc, MaxiSorp) at 2 μg/mL in PBS, and plates were blocked with 2% BSA in PBS. After washing the plate with water, antibodies to be tested were titrated across the plate in a final volume of 90 μL followed by addition of 10 μL of biotinylated 8E2 or biotinylated TS7, as indicated in Table E1 (0.1 μg/mL final concentration) to each well. Plates were incubated for 2 hours on a plate-shaker, followed by washing and addition of 100 μL/well of streptavidin-HRP (Jackson ImmunoResearch, 1/1000 dilution). After a further 1 hour incubation, plates were washed, developed with Ultra-TMB HRP substrate (Thermo Fisher), and stopped by the addition of 50 μL/well of 2 M sulfuric acid. Plates were read at 450 nm on an iD5 plate reader (Molecular Devices).
(In general: ELISA stands for enzyme-linked immunosorbent assay.)

Assay [2] deals with T1, human IL-11Rα. Description: BLI (Octet RED96e), mAb on protein G biosensors, hIL-11Rα in solution. The method, then:
Association was carried out in the presence of a 2-fold dilution series of hIL-11Rα and was allowed to proceed for 120 seconds; dissociation was measured for 300 to 1200 seconds.

For assay [3], the target named is T2, IL-11R on STAT3 Reporter (Luciferase)-HEK293 cells (UniProt Q14626 23-422).
T2 sequence (looked up): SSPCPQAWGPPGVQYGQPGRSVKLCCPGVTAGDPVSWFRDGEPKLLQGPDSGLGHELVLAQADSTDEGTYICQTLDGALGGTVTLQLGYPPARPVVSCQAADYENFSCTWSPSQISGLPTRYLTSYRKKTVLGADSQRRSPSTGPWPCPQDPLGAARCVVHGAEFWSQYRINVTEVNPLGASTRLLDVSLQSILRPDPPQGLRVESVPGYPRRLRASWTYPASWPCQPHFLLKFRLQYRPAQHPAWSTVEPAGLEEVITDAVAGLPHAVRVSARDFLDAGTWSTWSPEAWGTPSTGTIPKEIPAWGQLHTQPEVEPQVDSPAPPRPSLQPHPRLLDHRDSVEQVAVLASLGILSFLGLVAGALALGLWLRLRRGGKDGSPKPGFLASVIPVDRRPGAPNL
As to the kind of experiment: cell-based or functional assay.

B1: mAb10 (antibody, V domains shown)
VH: EVQLLESGGGLVQPGGSLRLSCAASGFTFSWYSMTWVRQAPGKGLEWVSSIVAYGDLTQYADSVKGRFTISRDNSKNTLYLQMNSLRAEDTAVYYCAKGPGWGSFDLWGRGTLVTVSS
VL: DIQMTQSPSSLSASVGDRVTITCQASQDINNYLNWYQQKPGKAPKLLIYDASNLQTGVPSRFSGSGSGTDFTFTISSLQPEDIATYYCQQHESQSPTFGPGTKVDIK
notes: Expressed as human IgG4 (S228P EU)
Broadly, the IC50 is the concentration that gives 50% inhibition. Low values mean inhibition by little substance, high ones a need for much substance. The term Kd denotes the equilibrium constant for the complex coming apart. The term koff denotes the first-order rate constant of dissociation. A high value points to fast dissociation. What is called kon is a measure of how fast the partners come together. A lower kon goes with slow association. The molecule B1 yielded an IC50 in assay [1] above 15 µg/mL. In assay [2], this molecule had a Kd of 0.496 nM, a koff of 0.000416 s⁻¹ and a kon of 840000 M⁻¹ s⁻¹. In addition, in assay [3], the “IC50, STAT3 luciferase reporter assay (HEK293), inhibiting IL-11, Assay 1” value (“IC50 … inhibiting IL-11, Assay 1” for short) is 2 µg/mL and the “IC50, STAT3 luciferase reporter assay (HEK293), inhibiting IL-11, Mean” value (shortened to “IC50 … inhibiting IL-11, Mean”) worked out at 2 µg/mL.

B2: mAb11 (antibody, V domains shown)
VH: EVQLLESGGGLVQPGGSLRLSCAASGFTFSWYSMTWVRQAPGKGLEWVSSIVDYGDLTQYADSVKGRFTISRDNSKNTLYLQMNSLRAEDTAVYYCAKGPGWGSFDLWGRGTLVTVSS
VL: DIQMTQSPSSLSASVGDRVTITCQASQDINNYLNWYQQKPGKAPKLLIYDASNLQTGVPSRFSGSGSGTDFTFTISSLQPEDIATYYCQQHESQSPTFGPGTKVDIK
notes: as for B1
For the molecule B2, in assay [1], the 50% inhibitory concentration (IC50) was above 15 µg/mL. In assay [2], this molecule came in with a Kd of 550 nM, a koff of 0.0181 s⁻¹ and a kon of 32900 M⁻¹ s⁻¹. Further, in assay [3], the “IC50 … inhibiting IL-11, Assay 1” value is above 100 µg/mL and the “IC50 … inhibiting IL-11, Mean” value is above 100 µg/mL.

B3: mAb13 (antibody, V domains shown)
VH: EVQLLESGGGLVQPGGSLRLSCAASGFTFSWYSMTWVRQAPGKGLEWVSSIVPYGDLTQYADSVKGRFTISRDNSKNTLYLQMNSLRAEDTAVYYCAKPEDWGRFDLWGRGTLVTVSS
VL: DIQMTQSPSSLSASVGDRVTITCQASQDINNYLNWYQQKPGKAPKLLIYDASNLQTGVPSRFSGSGSGTDFTFTISSLQPEDIATYYCQQHESQSPTFGPGTKVDIK
notes: as for B1
For the molecule B3, the IC50 in assay [1] was found to be 2.3 µg/mL. In assay [2], this molecule gave a Kd below 0.001 nM, a koff below 1e-07 s⁻¹ and a kon of 66700 M⁻¹ s⁻¹. In addition, in assay [3], the “IC50 … inhibiting IL-11, Assay 1” value worked out at 0.05 µg/mL; the “IC50, STAT3 luciferase reporter assay (HEK293), inhibiting IL-11, Assay 2” value (“IC50 … inhibiting IL-11, Assay 2” for short) was 0.19 µg/mL; the “IC50 … inhibiting IL-11, Mean” value was determined as 0.12 µg/mL.

B4: mAb12 (antibody, V domains shown)
VH: EVQLLESGGGLVQPGGSLRLSCAASGFTFSWYSMTWVRQAPGKGLEWVSSIVPYGDLTQYADSVKGRFTISRDNSKNTLYLQMNSLRAEDTAVYYCAKGPGWYSFDLWGRGTLVTVSS
VL: DIQMTQSPSSLSASVGDRVTITCQASQDINNYLNWYQQKPGKAPKLLIYDASNLQTGVPSRFSGSGSGTDFTFTISSLQPEDIATYYCQQHESQSPTFGPGTKVDIK
notes: as for B1
On to B4, for which the IC50 in assay [1] is 3.6 µg/mL. In assay [2], this molecule came in with a Kd below 0.001 nM, a koff below 1e-07 s⁻¹ and a kon of 58100 M⁻¹ s⁻¹. Besides, in assay [3], the “IC50 … inhibiting IL-11, Assay 1” value worked out at 0.42 µg/mL; the “IC50 … inhibiting IL-11, Assay 2” value was 0.39 µg/mL; the “IC50 … inhibiting IL-11, Mean” value was 0.41 µg/mL.

B5: mAb14 (antibody, V domains shown)
VH: EVQLLESGGGLVQPGGSLRLSCAASGFTFSWYSMTWVRQAPGKGLEWVSSIVPYGDLTQYAESVKGRFTISRDNSKNTLYLQMNSLRAEDTAVYYCAKGPGWGSFDLWGRGTLVTVSS
VL: DIQMTQSPSSLSASVGDRVTITCQASQDINNYLNWYQQKPGKAPKLLIYDASNLQTGVPSRFSGSGSGTDFTFTISSLQPEDIATYYCQQHESQSPTFGPGTKVDIK
notes: as for B1
Regarding B5, the IC50 in assay [1] stood at 2 µg/mL. Besides, in assay [2], the Kd is below 0.001 nM, the koff is below 1e-07 s⁻¹ and the kon was 33700 M⁻¹ s⁻¹. Also, in assay [3], the “IC50 … inhibiting IL-11, Assay 1” value was found to be 0.39 µg/mL; the “IC50 … inhibiting IL-11, Assay 2” value amounted to 0.28 µg/mL; the “IC50 … inhibiting IL-11, Mean” value turned out to be 0.34 µg/mL.
